Experimental data: the RNAGym collection of RNA variant scans (doi:10.7554/elife.80360)

B1: HDV Ribozyme (parent)
chain: GGCCGGCAUGGUCCCAGCCUCCUCGCUGGCGCCGGCUGGGCAACAUUCCGAGGGGACCGUCCCCUCGGUAAUGGCGAAUGGGACCCA

Variants of: B1
Assay: self-cleavage, relative activity (ratio to wild type); higher = more cleavage; co-transcriptional

Variant	self-cleavage
C13G G67A	0.138
U12A C13U	0.0978
C13A C15G	0.142
C13A C49G	0.0326
C13A C49U	0.119
U12C A70U	0.378
U12G C33A	0
U12G C33U	0.277
C13A U46G	0.0594
U12G G80A	0.906
C13G G17C	0.138
G11U U12A	0.116
G11U C49A	0.307
C13A G82U	0.904
U12G C58A	0.962
U12C C62A	0.57
U12C C62U	0.348
G11U G74U	0.1
C13A C57U	0.175
G11U G50A	0.415
U12C C57G	0.0831
U12C U47G	0.119
U12G A71U	0.791
G11U C48U	0.369

Variant	self-cleavage
U12C G73C	0.116
G11U U20A	0.0252
U12A G25A	0.108
G11U C26G	0.527
C13G A78C	0.0811
U12A A78U	0.128
C13A G35C	0.0339
U12C C13U	0
U12C C13A	0.0665
U12C C13G	0
U12C C48G	0.185
U12C C48A	0.762
G11U C32U	0.215
C13A C84G	0.237
U12A U23G	0.0791
G11U G53A	0.427
C13U A43C	0.0791
C13U A43U	0.151
C13G G76C	0.217
U12G G52A	1.05
C13A G80U	0.0654
C13G C62U	0.0369
C13G G28A	0
C13G G28C	0.0504

Variant	self-cleavage
U12C G25A	0.17
U12C G25C	0.0923
C13G A87U	0.0911
U12G U23A	0.875
G11U U37G	0
G11U U37A	0.124
U12A U60G	0
U12C G81C	0.18
U12C U69A	0.166
C13A A43G	0.0831
U12G G74A	0.18
U12G G74U	0.453
U12G G39U	0.447
G11U U23C	0.554
G11U U23A	0.437
U12C U72A	0.107
U12G C85A	0.712
U12G C85U	0.787
C13A C75U	0.163
C13G A77U	0.119
G11U C58U	0.447
U12C A51G	0.369
U12C A51C	0.378
U12A G54C	0.269

Variant	self-cleavage
U12A C19A	0.0287
C13A U69G	0.314
U12G U37G	0.277
U12G U37C	0.692
U12C C63U	0.389
U12C C63A	0.268
U12A U65C	0.506
U12C C18A	0.0739
G11U G54U	0.422
U12C C26G	0.914
U12G G40U	0.655
C13A G53A	0.229
C13A G53U	0.138
U12A C75G	0.277
U12A C75U	0.0361
U12A C75A	0.095
U12C C36U	0.107
U12A C30U	0.0739
C13A C19A	0.0302
C13A C19G	0.102
C13A C19U	0.119
G11U C66G	0.397
G11U C66U	0.249
U12G A87U	0.813

Variant	self-cleavage
U12A U27A	0.791
C13A C63G	0.38
U12G C75G	0
U12A U72A	0.0831
U12C U79C	0.133
U12C U79G	0.0791
U12C U79A	0.0615
U12C C19A	0.0361
U12A C49U	0.499
U12A C57G	0.208
C13A C61U	0.185
U12A C84A	0.506
C13A U65C	0.203
C13G C63U	0
C13A C58U	0.415
U12G C63U	0.755
U12G C63A	0.712
U12G C63G	0.727
G11U G38C	0
G11U U60A	0.277
G11U U60C	0.342
G11U G82U	0.138
U12A U47A	0.302
C13G C30G	0.0426

Variant	self-cleavage
C13G C30A	0.0978
C13G C30U	0.26
U12A C66A	0.193
C13A C30U	0.181
C13G C41U	0
C13A G17A	0.0639
C13A G17C	0
G11U C18U	0.0504
G11U C18A	0.0674
U12A C22G	0.0405
C13A C22U	0.0583
U12A G67C	0.244
C13G U23G	0
C13A G74A	0.101
C13A G74C	0.0346
U12G A70G	1.04
U12C A56C	0.453
U12C A56U	0.499
U12C C33G	0.101
U12C C33U	0.32
U12A G17C	0.0504
U12A A83U	0.674
U12A A83C	0.35
C13U A45U	0.198

Variant	self-cleavage
U12C G17U	0.308
C13G U37C	0.237
U12C U27G	0.312
U12A G68C	0.0755
U12A C15G	0
U12A C15A	0.19
U12G G73A	0.323
C13G A56G	0.0536
G11U U79C	0.0652
U12A G59C	0.573
C13G C36G	0.158
U12C C86A	0.864
U12C G38U	0.0739
U12C G53A	0.369
U12C G50C	0.434
C13A A77U	0.0739
U12G G34C	0.172
U12G A42C	0.217
U12A G29U	0.113
U12A G29A	0.113
U12G U69C	1.35
C13U A42U	0.125
C13U A42C	0.0831
U12G G31A	0.0504

Variant	self-cleavage
U12A U37C	0.277
C13G C84U	0.095
C13G G34U	0.136
U12C A71U	0.453
G11U G34U	0.0252
C13G U72G	0.0923
G11U C15U	0.258
U12G U27G	0.639
U12G U27C	0.776
U12A G34C	0.208
C13A G31U	0.0604
C13G G39U	0.0361
C13G G39C	0.0462
U12C C30G	0.0573
C13A C64A	0.264
U12G U60A	0.68
U12A C41G	0.138
U12C G67A	0.229
U12C G67C	0.256
U12G C86U	0.403
C13A G76C	0.386
U12A C26U	0.982
U12A C26A	0.745
U12G A83G	0.89

Variant	self-cleavage
C13G C33A	0.0978
C13G C61U	0.148
U12A C86G	0.32
C13G C21A	0
C13A G54U	0.188
G11U U27A	0.511
G11U G76C	0.532
C13G G82A	0.0519
U12G G54C	0.831
G11U C24U	0.111
G11U C24G	0.0966
U12A G52U	0.604
U12G C48G	0.831
U12C G28U	0.0378
C13A U20A	0.0811
C13A U20G	0.0594
U12C A45C	0.0504
U12G A16G	1.06
G11U G39U	0.0936
C13G C19U	0.0396
C13G C19A	0.0437
C13A G29U	0.0782
U12A U79A	0.0791
G11U G52U	0.561

Variant	self-cleavage
U12G G25A	0.151
C13A G25U	0.0791
G11U G81C	0.126
C13G A42U	0.0811
C13A G81U	0.22
G11U C19G	0.058
G11U C19A	0.0382
U12C G54A	0.862
U12C C44U	0.0692
U12G A78U	0
C13G G52U	0
G11U C44U	0.193
G11U C44A	0.256
G11U C44G	0.0723
U12G G28C	0
U12C A87U	0.396
C13A C48U	0.284
U12G G17C	0.192
U12G G55A	0.703
C13G G31U	0.0405
U12C G74U	0.0692
U12G G68C	0.914
U12G G68A	0.529
U12A G73U	0.0997

Variant	self-cleavage
U12C C61A	0.511
C13A U79G	0.151
C13A C32A	0.0326
C13A C32U	0.375
G11U C63G	0.248
C13G C14G	0.166
U12G G53C	0.831
C13G G55A	0.0875
U12G U72C	0
U12G U72G	0.128
U12A U46A	0.361
U12A U46C	0
C13G C44G	0
C13G G68U	0.0978
C13G G68C	0
C13A C21G	0.0332
C13G U69A	0.0437
G11U U47G	0.246
C13G C66U	0.0692
C13G C66G	0.135
U12G G35A	0.19
U12C A43U	0.0923
U12C A43C	0.0831
U12C A42U	0

Variant	self-cleavage
U12C G40U	0.0627
U12C G40A	0.305
C13A G39U	0.0615
G11U C36A	0.0755
U12G G67C	0.962
U12G G67A	0.923
U12A C61A	0.443
U12A G31C	0
U12C C66G	0.356
G11U G80C	0
G11U G80U	0.113
U12G A43G	0.237
U12G A43U	0.0639
U12G C26G	1.08
U12G C26U	0.776
U12G C64G	0.492
U12A C62U	0.252
C13A A56G	0.101
C13U A16U	1.11
C13G C24G	0
C13G C15G	0.122
U12A C33G	0
C13A A87G	0.187
U12C A78G	0.192

Variant	self-cleavage
G11U C85A	0.755
G11U C85G	0.689
U12G C84G	0.256
U12A G50A	0.229
U12A G50U	0.767
C13G C32G	0
G11U C30U	0.0923
C13G G25U	0.232
G11U C62U	0.403
C13G A45C	0.0639
U12G U46C	1.02
U12C G82A	0.0923
U12C G82U	0.104
C13G G40C	0.0396
C13A G52C	0.383
C13A G52A	0.229
U12G C36G	0
C13G U79C	0
U12A C32U	0.0723
C13A A78U	0.0449
G11U C64A	0.256
G11U G67U	0.168
C13U A51U	0.802
G11U C57A	0.447

Variant	self-cleavage
C13G C49G	0.356
C13G C85A	0
C13G C85U	0
C13G C58A	0
C13G A43C	0.262
C13G A43U	0.0923
C13G C48U	0.0739
C13A A45U	0.128
C13A A45C	0.0707
U12A G80A	0.108
G11U C21A	0.0329
U12G A45U	0.684
U12A G28C	0
U12A C14G	0.145
U12A C14A	0.0504
C13G G59C	0.104
U12C G68A	0.231
U12C G68C	0.145
C13A U27G	0.594
C13A U27C	0.594
U12G C41G	0.554
U12G C41A	1.06
